From PMC9998937 come the findings set out here.

This series deals with T1, ArcR (Staphylococcus aureus NCTC8325) (UniProt Q2FUY1).
T1 sequence: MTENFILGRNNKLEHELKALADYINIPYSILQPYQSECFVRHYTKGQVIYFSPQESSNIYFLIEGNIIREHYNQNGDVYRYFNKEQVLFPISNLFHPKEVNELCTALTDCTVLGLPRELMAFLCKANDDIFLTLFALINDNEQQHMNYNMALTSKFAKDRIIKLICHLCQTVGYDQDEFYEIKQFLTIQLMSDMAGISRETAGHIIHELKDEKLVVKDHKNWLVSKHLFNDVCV
The series can be described thus: EMSA.

On to “ACACCAGTTAACTTTTTGTCTTGTTGTGACATAGTCATCCCTCCACAATTTATAATAATTATAATTTAATACATATTATAATTTAACCCCATCAAAATTACAATTAAACATGCTCAAGATGATTAAAAAATCAGAAAATTTTAATTTTTTCGCTTTACAGTACTAAATAGTTATTGAATAGTACACTTAAAAAGCTTACAATAATGGGTATATTTAAATAGATGGGAGACTAAATATGGAAGAT (double strand) [katA promoter region]”, for which the binding result is recorded as “binds”.

“AGCGCGTGTTGTTATGTCGCGAATGGTAATCTTTTCTAAATCTTTTTCTTGTAGTAATTTAGTGAACGCTTGTTTAATGGAGGACTTTGTCTTTCTAATTCGCCTATCTTCTTTCAAAAATAAATCAACCTCCTTGTGTTATTGAACAATGTGGGTGTATTTGTCTATTAATGAACGTATTGATGAACATTGTGTATTGTTTATTCCCACTTACATATTATAATAGACAACATGCGAAATATTCAACACATTGTCTAATAAGGAGGT (double strand) [tetA promoter region]”: the binding entry was “no binding”.
